Reference: the supplement of paper PMC6757056
± gives the standard deviation of the averaged measurements.

B1: library; a variant is named by its letters at N, in order (parent)
chain: GCUGUCACCGGUGUAUUACCCUAGUGGUCGACCGGUCUGAUGAGUCUNNNNNNAGACGAAACAGC

Assays:
hypoxanthine [1] = variants of: B1; test: normalized RNA/DNA level with ligand (relative to sTRSVctl = 100) (log10 (% of sTRSVctl)); ligand: hypoxanthine (xanthine aptamer); higher = less ribozyme self-cleavage, higher mRNA level; details: ligand concentration (+) RNA-Seq: 5 mM, HEK293T, reporter: mCherry (pCS4076), ligand present: yes
In short: (§1)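 Ribozyme switch library plasmids with mCherry reporters (eGFP in certain ligand experiments) went into HEK293T cells at 4 µg per 6-well well. Where ligand was used, it was applied 1 h before transfection, and total RNA was extracted with EDTA 72 h later for reverse transcription, amplification, barcoding and sequencing. RNA level is the RNA-to-DNA read ratio normalized to a spiked-in non-cleaving sequence or to the leading sequences, then scaled and log-transformed. Scaling was ×100 with log10, the leading set comprised 25 sequences, and the cutoff was ≥100 DNA reads.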

hypoxanthine [2] = variants of: B1; test: normalized RNA/DNA level without ligand (relative to sTRSVctl = 100) (log10 (% of sTRSVctl)); ligand: hypoxanthine (xanthine aptamer); higher = less ribozyme self-cleavage, higher mRNA level; details: HEK293T, reporter: mCherry (pCS4076), ligand present: no
In short: as §1

Row | Variant | normalized RNA/DNA level with ligand (log10) (hypoxanthine [1]) | normalized RNA/DNA level without ligand (log10) (hypoxanthine [2])
1 | CUCGUG | 1.94 ± 0.028 | 1.81 ± 0.025
2 | CUCGUA | 1.91 ± 0.02 | 1.907 ± 0.015
3 | CUCGUU | 1.94 ± 0.019 | 2.03 ± 0.063
4 | AUCAGC | 1.94 ± 0.024 | 1.95 ± 0.047
5 | UUCCCA | 1.92 ± 0.032 | 1.91 ± 0.037
6 | UUCCCU | 2 ± 0.052 | 1.935 ± 0.0058
7 | UUCCCC | 1.93 ± 0.043 | 1.8846 ± 0.0013
8 | UUAUCC | 1.957 ± 0.016 | 1.929 ± 0.013
9 | UUAUCU | 1.977 ± 0.014 | 1.86 ± 0.026
10 | UUAUCG | 1.905 ± 0.01 | 1.78 ± 0.084
11 | UUAUCA | 1.953 ± 0.0031 | 1.83 ± 0.024
12 | GUCGAU | 1.93 ± 0.07 | 1.76 ± 0.039
13 | GUCGUC | 2.03 ± 0.088 | 1.93 ± 0.058
14 | GUCGUA | 1.91 ± 0.088 | 1.79 ± 0.073
15 | GUCGUU | 1.97 ± 0.057 | 1.89 ± 0.032
16 | GUCGUG | 1.86 ± 0.043 | 1.37 ± 0.018
17 | CUAUAA | 1.9 ± 0.037 | 1.8 ± 0.0052
18 | CUAUAG | 1.93 ± 0.019 | 1.69 ± 0.068
19 | CUAUAC | 1.954 ± 0.014 | 1.835 ± 0.0098
20 | CUAUAU | 1.951 ± 0.014 | 1.81 ± 0.038
21 | AUAGUU | 1.9009 ± 0.0014 | 1.84 ± 0.055
22 | AUAGUC | 1.931 ± 0.016 | 1.923 ± 0.019
23 | GUCCGC | 1.9 ± 0.055 | 1.85 ± 0.024

Row | Variant | normalized RNA/DNA level with ligand (log10) (hypoxanthine [1]) | normalized RNA/DNA level without ligand (log10) (hypoxanthine [2])
24 | GUCCGA | 1.9508 ± 0.00054 | 1.732 ± 0.013
25 | GUCCGU | 1.891 ± 0.0098 | 1.86 ± 0.041
26 | UUAUAG | 1.89 ± 0.019 | 1.67 ± 0.04
27 | UUAUAU | 1.93 ± 0.027 | 1.85 ± 0.019
28 | UUAUAA | 1.92 ± 0.0059 | 1.76 ± 0.041
29 | AUCACU | 1.98 ± 0.024 | 1.884 ± 0.0058
30 | AUCACA | 1.908 ± 0.0044 | 1.84 ± 0.023
31 | AUCACG | 1.933 ± 0.0027 | 1.554 ± 0.015
32 | AUCACC | 1.98 ± 0.029 | 1.953 ± 0.011
33 | GUAGAU | 1.87 ± 0.092 | 1.758 ± 0.00084
34 | GUAGAC | 1.89 ± 0.041 | 1.69 ± 0.025
35 | AUACUC | 1.93 ± 0.05 | 1.96 ± 0.071
36 | AUACUU | 1.92 ± 0.022 | 1.859 ± 0.0037
37 | CUAGCG | 1.91 ± 0.068 | 1.824 ± 0.0032
38 | CUAGCC | 1.95 ± 0.037 | 1.86 ± 0.064
39 | CUAGCU | 1.987 ± 0.0096 | 1.93 ± 0.042
40 | GUCAAC | 1.95 ± 0.02 | 1.748 ± 0.0031
41 | GUCAAU | 1.925 ± 0.015 | 1.8 ± 0.054
42 | GUCACG | 1.9 ± 0.025 | 1.54 ± 0.055
43 | GUCACU | 1.977 ± 0.014 | 1.91 ± 0.041
44 | GUCACA | 1.917 ± 0.002 | 1.81 ± 0.022
45 | GUCACC | 1.92 ± 0.059 | 1.9 ± 0.079
46 | CUCACG | 1.93 ± 0.024 | 1.913 ± 0.0027

Row | Variant | normalized RNA/DNA level with ligand (log10) (hypoxanthine [1]) | normalized RNA/DNA level without ligand (log10) (hypoxanthine [2])
47 | CUCACA | 1.911 ± 0.016 | 1.83 ± 0.021
48 | GUAUCC | 1.96 ± 0.025 | 1.86 ± 0.043
49 | GUAUCG | 1.9 ± 0.042 | 1.57 ± 0.017
50 | GUAUCA | 1.96 ± 0.049 | 1.88 ± 0.02
51 | CUCCAC | 1.92 ± 0.02 | 1.92 ± 0.036
52 | CUCCAG | 1.89 ± 0.068 | 1.73 ± 0.057
53 | CUCCAA | 1.91 ± 0.047 | 1.869 ± 0.01
54 | UUCGUG | 1.964 ± 0.019 | 1.7 ± 0.041
55 | UUCGUC | 2.0298 ± 0.00024 | 2.03 ± 0.041
56 | UUCGUU | 1.94 ± 0.11 | 1.84 ± 0.054
57 | CUCUAC | 1.966 ± 0.013 | 1.87 ± 0.019
58 | CUCUAA | 1.93 ± 0.051 | 1.8 ± 0.054
59 | CUCUAG | 1.9 ± 0.0079 | 1.78 ± 0.011
60 | CUAGAG | 1.88 ± 0.018 | 1.64 ± 0.023
61 | AUAGCC | 1.936 ± 0.0032 | 1.82 ± 0.028
62 | AUAGCU | 1.935 ± 0.018 | 1.83 ± 0.005
63 | UUAUUG | 1.897 ± 0.017 | 1.714 ± 0.0023
64 | UUAUUC | 1.96 ± 0.045 | 1.936 ± 0.016
65 | UUAUUU | 1.91 ± 0.033 | 1.91 ± 0.031
66 | CUCCGU | 1.95 ± 0.051 | 1.88 ± 0.019
67 | CUCCGG | 1.93 ± 0.029 | 1.95 ± 0.065
68 | CUCCGA | 1.96 ± 0.13 | 1.884 ± 0.0062
69 | CUCCGC | 1.967 ± 0.019 | 1.95 ± 0.026

Row | Variant | normalized RNA/DNA level with ligand (log10) (hypoxanthine [1]) | normalized RNA/DNA level without ligand (log10) (hypoxanthine [2])
70 | UUAGGU | 1.92 ± 0.028 | 1.8 ± 0.031
71 | UUAGGA | 1.857 ± 0.012 | 1.66 ± 0.032
72 | GUACGC | 1.95 ± 0.033 | 1.84 ± 0.062
73 | GUACGA | 1.91 ± 0.04 | 1.686 ± 0.0047
74 | CUACUU | 1.99 ± 0.028 | 1.83 ± 0.026
75 | CUACUG | 1.942 ± 0.0056 | 1.925 ± 0.0027
76 | CUACUC | 2.039 ± 0.013 | 1.95 ± 0.025
77 | AUCCUU | 1.98 ± 0.027 | 1.91 ± 0.055
78 | AUCCUA | 1.94 ± 0.062 | 1.9 ± 0.043
79 | AUCGCA | 1.9253 ± 0.0018 | 1.77 ± 0.028
80 | AUCGCG | 1.863 ± 0.0079 | 1.409 ± 0.0031
81 | AUCGCU | 1.91 ± 0.024 | 1.84 ± 0.028
82 | UUCAUU | 1.95 ± 0.025 | 1.91 ± 0.071
83 | UUCAUA | 1.88 ± 0.019 | 1.8411 ± 0.0016
84 | UUCAUG | 1.95 ± 0.029 | 1.78 ± 0.056
85 | AUCAUG | 1.89 ± 0.021 | 1.63 ± 0.062
86 | CUCGAC | 1.96 ± 0.023 | 1.808 ± 0.017
87 | CUCGAG | 1.9019 ± 0.00066 | 1.6 ± 0.031
88 | AUAUUU | 1.903 ± 0.0024 | 1.89 ± 0.057
89 | AUAUUA | 1.868 ± 0.0053 | 1.82 ± 0.028
90 | AUAGGC | 1.91 ± 0.025 | 1.776 ± 0.0031
91 | AUAGGU | 1.908 ± 0.016 | 1.587 ± 0.015
92 | CUAGUA | 1.918 ± 0.0099 | 1.8 ± 0.049

Row | Variant | normalized RNA/DNA level with ligand (log10) (hypoxanthine [1]) | normalized RNA/DNA level without ligand (log10) (hypoxanthine [2])
93 | CUAGUU | 1.919 ± 0.0027 | 1.9151 ± 0.00062
94 | AUAUAU | 1.9 ± 0.028 | 1.79 ± 0.045
95 | GUCGCC | 1.9 ± 0.05 | 1.91 ± 0.08
96 | GUCGCU | 2.04 ± 0.038 | 1.904 ± 0.011
97 | GUCGCG | 1.93 ± 0.039 | 1.55 ± 0.055
98 | GUAGUC | 1.976 ± 0.012 | 1.81 ± 0.05
99 | GUAGUU | 1.96 ± 0.041 | 1.87 ± 0.046
100 | GUAUAA | 1.87 ± 0.052 | 1.78 ± 0.02
101 | CUCCCA | 1.991 ± 0.0032 | 1.87 ± 0.046
102 | CUCCCU | 1.94 ± 0.039 | 1.97 ± 0.043
103 | GUCAUU | 1.97 ± 0.056 | 1.916 ± 0.015
104 | GUCAUA | 1.957 ± 0.013 | 1.806 ± 0.013
105 | CUCGCG | 1.983 ± 0.0024 | 1.9 ± 0.084
106 | CUCGCA | 1.94 ± 0.062 | 1.847 ± 0.002
107 | CUCGCU | 1.95 ± 0.043 | 1.924 ± 0.014
108 | CUCGCC | 1.99 ± 0.026 | 1.883 ± 0.0029
109 | UUCACU | 1.956 ± 0.0023 | 1.76 ± 0.039
110 | UUCACG | 1.93 ± 0.036 | 1.8 ± 0.031
111 | UUCACC | 1.984 ± 0.015 | 2 ± 0.05
112 | GUCCCC | 1.907 ± 0.017 | 1.825 ± 0.01
113 | GUCCCU | 1.934 ± 0.016 | 1.92 ± 0.05
114 | GUCCCA | 1.94 ± 0.02 | 1.9 ± 0.041
115 | GUCCUU | 1.94 ± 0.11 | 1.95 ± 0.017
